The values below come from publication PMC9519457 (Nature Microbiology, 2022).

One may read the Kd as a measure of binding affinity in units of concentration. A high value points to a looser complex. By koff is commonly meant the first-order rate constant of dissociation. As usually defined, the kon is the rate constant with which the complex forms. Read a high kon as fast association.

Changes are numbered by the printed parent chain.

Experiment in all cases: BLI
Conditions in all cases: both partners purified

Experiment [1] concerns the target T1, SARS-CoV-2 wild-type RBD (SARS-CoV-2 wild type).
The target of experiment [2] is T1, SARS-CoV-2 wild-type RBD. The source holds these as a separate data set.
In experiment [3] the target is T1, SARS-CoV-2 wild-type RBD. This is another data set of the same source.
The target of experiment [4] is T1, SARS-CoV-2 wild-type RBD. The source holds these as a separate data set.
Experiment [5] addresses SARS-CoV-2 RBD (residues 319-541), wild type (SARS-CoV-2, wild type, UniProt P0DTC2).

B1: FC08 (antibody, V domains shown)
VH: QLLQQSGAEVKKPGSSVKVSCKASGGTFSSYAISWVRQAPGQGLEWMGGIIPIIGIANYAQKFQGRVTITADKSTSTAYMELSSLRSEDTAVYYCARERGYSGYGAAYYFDYWGQGTLVTVSS
VL: SVLTQPPSVSGAPGQRVTISCTGSSSNIGAGYDVHWYQQLPGTAPKLLIYGNSNRPSGVPDRFSGSKSGTSASLAITGLQAEDEADYYCQSYDSSLSGSVFGGGTKLTVL
In the experiment with SARS-CoV-2 wild-type RBD [1], B1 yielded a dissociation constant (Kd) of 0.35 nM, a koff of 0.00028 s⁻¹ and a kon of 797000 M⁻¹ s⁻¹.

B2: R1-32 (antibody, V domains shown)
VH: EVQLVESGAEVKKPGSSVKVSCKASGGTFSSYAISWVRQAPGQGLEWMGGIIPILGIANYAQKFQGRVTITADKSTSTAYMELSSLRSEDTAVYYCARENGYSGYGAAANFDLWGRGTLVTVSS
VL: QSVLTQPPSVSGAPGQRVTISCTGSSSNIGAGYDVHWYQQLPGTAPKLLIYGNSNRPSGVPDRFSGSKSGTSASLAITGLQAEDEADYYCQSYDSSLSGSVFGGGTKLTVL
notes: human IgG1
On to B2, for which, in the experiment with SARS-CoV-2 wild-type RBD [2], the koff worked out at 0.000376 s⁻¹ and the on-rate (kon) came to 472000 M⁻¹ s⁻¹. In the experiment with SARS-CoV-2 wild-type RBD [3], this molecule yielded a Kd of 2.8 nM, a koff of 0.00149 s⁻¹ and a kon of 533000 M⁻¹ s⁻¹.

B3: C807 (antibody, V domains shown)
VH: QVQLVQSGAEAKKPGSSVKVSCKASGGTFKSYIINWVRQAPGQGLEWMGEIIPIFGTANYAQKFQGRVTSTADESTSTAYMELSSLKSEDTAVYYCARGRGYSGYGASYYFDYWGQGTLVTVSS
VL: B2 VL with S26N, G52A, S96G
notes: human IgG1
Turning to B3, in the experiment with SARS-CoV-2 wild-type RBD [4], binding was characterised by a dissociation constant (Kd) of 0.79 nM, the dissociation rate constant (koff) worked out at 0.000431 s⁻¹ and the kon is 547000 M⁻¹ s⁻¹.

B4: C092 (antibody, V domains shown)
VH: QVQLVQSGAEVKKPGSSVKVSCKASGGSFTNHFISWVRQAPGQGLEWMGRIIPILGTANYAQNFQGRVMMTADKSTSTAYMELSSLRSEDTAVYYCARDSGYSGYGSTYYMDVWGKGTTVTVSS
VL: B2 VL with S26N, T44A, S54N, G70D, A82V, G99D, G104S, L108V
notes: human IgG1
On to B4, for which, in the experiment with SARS-CoV-2 wild-type RBD [4], the Kd was determined as 0.16 nM, the koff is 0.000103 s⁻¹ and the kon is 642000 M⁻¹ s⁻¹.

B5: C832 (antibody, V domains shown)
VH: QVQLVQSGAEVKKPGSSVKVSCKASGGTFSSYSISWVRQAPGQGLEWMGRIIPILGIASYAQKFQGRVTITADKSTSTVYMELTGLRSDDTAVYYCARDRGYSDYGSHYYMDVWGKGTTVTVSS
VL: B2 VL with G52I, G99D
notes: human IgG1
In the experiment with SARS-CoV-2 wild-type RBD [4], B5 displayed a Kd of 0.63 nM, a koff of 0.000246 s⁻¹ and a kon of 387000 M⁻¹ s⁻¹.

B6: R1-32 (human IgG1 monoclonal antibody) (antibody, V domains shown)
VH: B2 VH
VL: B2 VL
Consider B6, for which, in experiment [5], the Kd came to 0.8 nM.

B7: C091 (antibody, V domains shown)
VH: B4 VH with S28T, T30S, N31S, H32Y, F33T, T57I, N63K, M69T, M70I
VL: B2 VL with G104T, G105V, L108V
notes: human IgG1
In the experiment with SARS-CoV-2 wild-type RBD [4], B7 showed a Kd of 9.75 nM, a dissociation rate constant (koff) of 0.00337 s⁻¹ and a kon of 346000 M⁻¹ s⁻¹.

B8: C978 (antibody, V domains shown)
VH: QVQLVQSGAEVKKPGSSVKVSCKASGATFSNYIISWVRQAPGQGLEWMGRTIPLLDIANYAQKFQGRVTITADKSTRIVYMHLGSLTSEDTAVYYCATGKGYSSSSAAYYFDHWGQGTLVTVSS
VL: QSVLTQPPSVSGAPGQRVTISCTGTNSNIGAGYDIHWYQQLPGTAPKLLIYGSNNRPSGVPDRFSGSKSGTSASLAITGLQAEDEADYYCQSYDSSLSGSEVFGGGTKLTVL
notes: human IgG1
In the experiment with SARS-CoV-2 wild-type RBD [4], B8 had an equilibrium dissociation constant (Kd) of 0.99 nM, a koff of 0.000524 s⁻¹ and a kon of 531000 M⁻¹ s⁻¹.

B9: C963 (antibody, V domains shown)
VH: QVQLVQSGAEVKKPGSSVRVSCKASGGTFSSFTITWVRQAPGQGLEWMGRIIPNLNIPNYAQRFQGRITITAEKSTSTAYLELSSLRSEDTAVYYCARGVGYSGSGSNWYFDLWGRGTLVTVSS
VL: QSVLTQPPSVSGAPGQRVTISCTGSSSNIGAGYDVHWYQQLPGTAPKLLISGHINRPSGVPDRFSGSTSGTSASLAITGLQAEDEADYYCQSYDSSLSDSVFGGGTKLTV
notes: human IgG1
In the experiment with SARS-CoV-2 wild-type RBD [4], B9 displayed a Kd of 0.84 nM, a koff of 0.000593 s⁻¹ and an on-rate (kon) of 709000 M⁻¹ s⁻¹.

B10: C941 (antibody, V domains shown)
VH: QVQLVQSGAEVKKPGSSVKVSCKASGGTSRSYPISWVRQAPGQGLEWMGRIIPIVGTANYAQRFQGRVTITADESTGTAYMELSSLRSEDTAVYYCARNRGYSDYGSVYYFDYWGQGTLVTVSS
VL: B9 VL with T44A, S51Y, G52R, H53N, T68K, E83D, D99G
notes: human IgG1
As for B10, in the experiment with SARS-CoV-2 wild-type RBD [4], the affinity, expressed as Kd, was 0.77 nM; the koff amounted to 0.000117 s⁻¹; the kon is 153000 M⁻¹ s⁻¹.
